How the values were obtained:
NMDA receptor = NMDA receptor activity in oocytes expressing active or inactive RPTP alpha; type: cell-based; conditions: oocytes expressing active or inactive RPTP α
Method: Two-electrode voltage-clamp recordings were obtained from individual oocytes placed in a small Plexiglas net chamber (5 ml). Electrophysiological experiments were performed using microelectrodes filled with 3 M KCl (resistance of 0.2-0.7 MΩ) and an Oocyte Clamp amplifier (OC-725C; Warner Instrument, Hamden, Conn.). For physiological recordings of NMDA receptor activity, oocytes were first perfused with Mg^2+-free ND96 (mM: 96 NaOH, 2 KOH, 0.3 CaCl2, 5 HEPES pH 7.6 with methanesulfonic acid). Then, the oocytes were clamped at −60 mV holding potential, followed by recoding NMDA currents (induced by administering […]) (Zheng et al., J Neurosci. 17, 8676-8686, 1997; Chang and Kuo, J Neurosci. 28, 1546-1556, 2008).

mice = test: Water maze test, scopolamine-caused spatial cognition impairment; type: in vivo, mouse
Method: The Moths water maze set up contained a round water pool (45 cm deep with a diameter of 90 cm) filled with milk-mixed water (22±1° C.) to a depth of 30 cm. It was placed in a dark, sound-shielded room in which various visual cues were established. A white platform (6 cm in diameter, 29 cm in height) was inside the pool, with the top thereof 1 cm below the water surface in the center of one quadrant of the maze
On day 1, the mice were trained to swim for 60 sec. Subsequently, the training was conducted four times a day for four consecutive days, with the platform inside the pool. When the mouse reached the platform, it was allowed to sit on the platform only for 10 sec. If the failed in reaching the platform within 60 sec, it was guided to reach the platform and stay for 10 sec thereon. Afterwards, the mouse was returned back to the home cage and allowed to dry its body under an IR lamp. The time interval between trials was 30 sec.
The time to reach the hidden platform was recorded in each trial using a video camera-based Ethovision System (Nodulus, Wageningen, the Netherlands).
For each training trial, the mouse was placed into the pool at one quadrant at positions which were different day by day. One day after the final training trial, the mouse was evaluated. In this regard, after the platform was removed, the mouse was allowed to swim for 60 sec in search for the platform, and the time to swim in the quadrant where the platform was located was recorded. Gintonin (25, 50, or 100 mg/kg, p.o.) in physiological saline was administered 1 hr before test, every day. Tacrine (10 mg/kg, p.o.) was used as a positive control. Memory impairment was induced by scopolamine (0.9 mg/kg i.p.) 30 min after gintonin administration. For a negative control, only physiological saline was administered.
An examination was made of simple spatial reasoning. To this end, while the mice were allowed to swim in the absence of the rescue platform in the pool, the time period during which the mice swam in the quadrant where the rescue platform had been located was recorded.

B1: gintonin: ginseng-derived glycolipoprotein; structural protein of ginseng major latex-like protein (MLP151) and ribonuclease-like storage proteins; crude gintonin used in tests (protein)
chain 1: MGLTGKLICQTGIKSDGDVFHELFGTRPHHVPNITPANIQGCDLHEGEFGKVGSVVIWNYSIDGNAMIAKEEIVAIDEEDKSVTFKVVEGHLFEEFKSIVFSVHVDTKGEDNLVTWSIDYEKLNESVKDPTSYLDFLLSVTRDIEAHHLPK
chain 2: RSDYPWAMFALRLQWPAGFCEVNNACDTKSLLNTFTIHGLYPYNAKGTPALYCDGTAFDVNSVSDFLAEMHLAWPSHETNTEDIQFWEHEWKKHGRCSEALLKQTDYFRTALAFRKAFDIVGLLNQEGIYPNNDLYRPKMIKEAIKKHLNAVPEIDFTKNENSEYVLTDINVCVNQQATRFVDCPTDDATDDYRLKFVRLPSKMKFADPRTNSII
For B1, the “NMDA receptor activity when treated with gintonin” value (NMDA receptor) was “NMDA receptor activity at a low level”, the “swimming time in the quadrant where the platform had been located” value (from here on “swimming time”) (mice; gintonin 25 mg/kg p.o. + scopolamine) was 21.33 ± 3.13 s and the “swimming time” value (mice; gintonin 50 mg/kg p.o. + scopolamine) was 24.53 ± 3.91 s. The “swimming time” value (mice; gintonin 100 mg/kg p.o. + scopolamine) was 25.17 ± 4.43 s and the “latent time to reach hidden platform” value (mice; gintonin 25, 50, 100 mg/kg p.o. + scopolamine, day 1 to day 4) was “reduce the latent time extended by scopolamine significantly and in a dose-dependent manner”.
